Measured values as given in patent US20230093512A1.
Where two headings read alike, the source gives them in different places.

Tests used:
[1] = molecular target: human PD-L1 (PD-L1 aAPC/CHO-K1 cells) (human) (UniProt Q9NZQ7)
[2] = molecular target: TGF-β3; assay: ELISA: TGF-β3 coated on the plate, HRP-conjugated 2nd antibody, OD450
[3] = molecular target: TGF-β3; assay: as above; remark: listed apart in the source
[4] = molecular target: TGF-β1; assay: ELISA: TGF-β1 coated on the plate, HRP-conjugated 2nd antibody, OD450
TGF-β1, sequence (P01137 279-390): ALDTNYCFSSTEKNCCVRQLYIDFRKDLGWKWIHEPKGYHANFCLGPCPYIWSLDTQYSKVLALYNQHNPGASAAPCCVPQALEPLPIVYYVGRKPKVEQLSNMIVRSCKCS

[5] = molecular target: TGF-β2; assay: ELISA: TGF-β2 coated on the plate, HRP-conjugated 2nd antibody, OD450
TGF-β2, sequence (P61812 303-414): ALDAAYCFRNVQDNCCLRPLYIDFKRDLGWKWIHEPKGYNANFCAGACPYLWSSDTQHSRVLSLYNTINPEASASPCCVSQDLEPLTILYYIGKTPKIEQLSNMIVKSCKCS

[6] = molecular target: human PD-L1 (PD-L1 aAPC/CHO-K1 cells) (human) (UniProt Q9NZQ7); remark: listed apart in the source
[7] = molecular target: TGF-β1; assay: ELISA: TGF-β1 coated on the plate, HRP-conjugated 2nd antibody, OD450; remark: listed apart in the source
[8] = molecular target: TGF-β1; assay: SPR, TGFβ ligand amine-coupled to chip, fusion protein as analyte, 25 °C, HBS-EP
[9] = molecular target: TGF-β2; assay: as above
[10] = molecular target: TGF-β3; assay: as above
[11] = molecular target: TGF-β2; assay: ELISA: TGF-β2 coated on the plate, HRP-conjugated 2nd antibody, OD450; remark: listed apart in the source
[12] = molecular target: PD-L1 that is over expressed on CHO-K1 cells (Homo sapiens (Human)) (UniProt Q9NZQ7); assay: flow cytometry (FACS) on CHO-K1 cells over expressing PD-L1, geometric mean
PD-L1 that is over expressed on CHO-K1 cells (Homo sapiens (Human)), sequence (Q9NZQ7 19-290 limits assumed): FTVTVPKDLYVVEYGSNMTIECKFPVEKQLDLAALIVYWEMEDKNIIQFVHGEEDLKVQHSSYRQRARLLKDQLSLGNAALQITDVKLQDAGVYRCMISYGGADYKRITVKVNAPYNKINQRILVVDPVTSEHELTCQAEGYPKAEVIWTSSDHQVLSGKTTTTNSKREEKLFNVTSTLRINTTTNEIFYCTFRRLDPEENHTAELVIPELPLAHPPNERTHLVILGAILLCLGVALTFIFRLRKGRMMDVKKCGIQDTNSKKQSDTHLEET

TGF-β3, sequence (P10600 301-412): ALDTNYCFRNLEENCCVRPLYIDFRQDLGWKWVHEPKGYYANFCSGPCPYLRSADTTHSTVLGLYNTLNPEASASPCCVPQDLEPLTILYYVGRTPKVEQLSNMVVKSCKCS
human PD-L1 (PD-L1 aAPC/CHO-K1 cells) (human), sequence (Q9NZQ7 19-290): as the sequence (Q9NZQ7 19-290 limits assumed) above

Row | EC50, luminescence (RLU) of PD-1 effector cells co-cultured with PD-L1 aAPC/CHO-K1 cells, PD-1/PD-L1 blockade bioassay [1] [nM] | EC50 [2] [µg/mL] | EC50 [3] [µg/mL] | EC50 [4] [µg/mL] | EC50 [5] [µg/mL] | EC50, luminescence (RLU) of PD-1 effector cells co-cultured with PD-L1 aAPC/CHO-K1 cells, PD-1/PD-L1 blockade bioassay [6] [nM] | EC50 [7] [µg/mL] | Kd [8] [nM] | koff [8] [s⁻¹] | kon [8] [M⁻¹ s⁻¹] | Kd [9] [nM] | koff [9] [s⁻¹] | kon [9] [M⁻¹ s⁻¹] | Kd [10] [nM] | koff [10] [s⁻¹] | kon [10] [M⁻¹ s⁻¹] | EC50 [11] [µg/mL] | EC50 [12] [nM] | Substance
1 | 0.398 | – | – | – | – | – | – | – | – | – | – | – | – | – | – | – | – | – | Tecentriq (antibody)
2 | 0.852 | 0.278 | 0.307 | 0.327 | 0.432 | 0.77 | 0.255 | 0.943 | 0.000315 | 334000 | 4.6 | 0.00132 | 286000 | 1.02 | 0.00032 | 314000 | 0.348 | 0.344 | M7824
